# T1: Dectin-1-expressing HEK cells (human, UniProt Q9BXN2 1-247)
# T1 chain: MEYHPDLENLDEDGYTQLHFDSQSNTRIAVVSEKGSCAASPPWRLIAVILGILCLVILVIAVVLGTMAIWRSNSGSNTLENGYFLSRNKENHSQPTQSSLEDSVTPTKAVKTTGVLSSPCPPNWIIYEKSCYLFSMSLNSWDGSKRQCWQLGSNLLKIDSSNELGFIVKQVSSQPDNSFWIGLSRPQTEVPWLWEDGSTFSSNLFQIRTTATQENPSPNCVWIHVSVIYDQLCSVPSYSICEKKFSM
# T2: cynomolgus monkey Dectin-1 (cynomolgus monkey, UniProt A0A2K5UXY6 35-281)
# T2 construct: whole, on cells; also called cynomolgus Dectin-1; Dectin-1 on cynomolgus monkey monocytes
# T2 sequence: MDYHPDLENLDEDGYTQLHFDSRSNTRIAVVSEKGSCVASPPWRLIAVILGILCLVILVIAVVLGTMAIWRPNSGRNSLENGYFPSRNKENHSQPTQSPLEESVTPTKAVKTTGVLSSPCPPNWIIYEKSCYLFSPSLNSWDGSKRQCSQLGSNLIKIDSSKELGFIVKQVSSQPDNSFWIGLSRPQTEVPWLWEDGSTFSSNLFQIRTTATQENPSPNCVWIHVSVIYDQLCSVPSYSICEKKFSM
# T3: human Dectin-1 (isoform not given) (human, UniProt Q9BXN2 1-247)
# T3 construct: whole, on cells; also called hDectin-1; Dectin-1 on human monocytes
# T3 sequence (looked up): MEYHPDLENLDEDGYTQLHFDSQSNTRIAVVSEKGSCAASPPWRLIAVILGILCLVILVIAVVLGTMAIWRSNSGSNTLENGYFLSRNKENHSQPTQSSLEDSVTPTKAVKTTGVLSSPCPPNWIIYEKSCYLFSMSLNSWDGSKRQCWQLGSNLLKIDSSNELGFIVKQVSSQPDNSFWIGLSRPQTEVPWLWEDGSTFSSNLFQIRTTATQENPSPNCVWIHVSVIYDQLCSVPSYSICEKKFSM
# Columns and labels:
# [1] = target: HEK-Blue hDectin-1a cells (UniProt Q9BXN2); experiment: cell binding; HEK-Blue hDectin-1a cells
# HEK293F hDectin-1a FL = HEK293F hDectin-1a FL (UniProt Q9BXN2); experiment: cell binding; HEK293F hDectin-1a FL cells
# Human monocytes (human) = Human monocytes (human) (UniProt Q9BXN2); experiment: cell binding; human monocytes
# [2] = target: HEK-Blue hDectin-1b cells (UniProt Q9BXN2); experiment: cell binding; HEK-Blue hDectin-1b cells
# [3] = target: cynomolgus monkey Dectin-1 (cynomolgus monkey); experiment: flow cytometry on cynomolgus monkey monocytes
# [4] = target: T1, Dectin-1-expressing HEK cells; experiment: flow cytometry; HEK cells
# [5] = target: T2, cynomolgus monkey Dectin-1; experiment: flow cytometry on cynomolgus monkey monocytes
# [6] = target: T3, human Dectin-1 (isoform not given); experiment: flow cytometry on HEK 293 cells stably overexpressing human Dectin-1
molecule,measurement,setting,value
15E2,EC50,[1],1.2 nM
same,EC50,HEK293F hDectin-1a FL,1.4 nM
same,EC50,Human monocytes (human),0.6 nM
same,EC50,[2],9.3 nM
15E2 commercial anti-Dectin-1 antibody,EC50,[3],14 nM
259931 commercial anti-Dectin-1 antibody,EC50,[3],16 nM
GE2,EC50,[1],1.9 nM
same,EC50,HEK293F hDectin-1a FL,2.4 nM
same,EC50,Human monocytes (human),1.4 nM
same,EC50,[2],12 nM
2m24/RSV (bispecific antibody) chain 1: QVQLVQSGAEVKKPGASVKVSCKSSGYTFTDYYIHWVRQAPGQGLEWMGWINPNSGDTNYAQKFQGRITMTRDTSISTAYLELSRLRSDDTAVFYCARNSGSYSFGYWGQGTLVTVSS chain 2: DIQMTQSPSSVSASVGDRVTITCRASQGISSWLAWYQQKPGKAPKLLIFGASSLQSGVPSRFSGSGSGTDFTLTVSSLQPEDFATYYCQQAYSFPFTFGPGTKVDIE chain 3: QVTLRESGPALVKPTQTLTLTCTFSGFSLSTSGMSVGWIRQPPGKALEWLADIWWDDKKDYNPSLKSRLTISKDTSANQVVLKVTNMDPADTATYYCARSMITNWYFDVWGAGTTVTVSS chain 4: DIQMTQSPSTLSASVGDRVTITCKCQLSVGYMHWYQQKPGKAPKLLIYDTSKLASGVPSRFSGSGSGTAFTLTISSLQPDDFATYYCFQGSGYPFTFGGGTKLEIK,EC50,[4],1.6 nM
"anti-human Dectin-1 antibody clone 2M24 (mIgG1) (antibody, V domains shown) VH: QVQLVQSGAEVKKPGASVKVSCKSSGYTFTDYYIHWVRQAPGQGLEWMGWINPNSGDTNYAQKFQGRITMTRDTSISTAYLELSRLRSDDTAVFYCARNSGSYSFGYWGQGTLVTVSS VL: DIQMTQSPSSVSASVGDRVTITCRASQGISSWLAWYQQKPGKAPKLLIFGASSLQSGVPSRFSGSGSGTDFTLTVSSLQPEDFATYYCQQAYSFPFTFGPGTKVDIE",EC50,[5],0.3 nM
"Fab 2M24-mSA fusion protein (Fab, V domains shown) VH: QVQLVQSGAEVKKPGASVKVSCKSSGYTFTDYYIHWVRQAPGQGLEWMGWINPNSGDTNYAQKFQGRITMTRDTSISTAYLELSRLRSDDTAVFYCARNSGSYSFGYWGQGTLVTVSS VL: DIQMTQSPSSVSASVGDRVTITCRASQGISSWLAWYQQKPGKAPKLLIFGASSLQSGVPSRFSGSGSGTDFTLTVSSLQPEDFATYYCQQAYSFPFTFGPGTKVDIE",EC50,[6],1.45 nM
